Experimental data as given in paper PMC9482650, “Quantitative fragmentomics allow affinity mapping of interactomes” (Nature Communications, 2022).

Columns and labels:
Assay in all cases: holdup assay
Parameters in all cases: key: below the threshold = too weak to quantify, mostly under pKd 3.1 to 4
[1] = target: DLG2_3, Q15700
[2] = target: Inadl_1, Q8NI35
[3] = target: T1, SNTA1, Q13424
T1 sequence (Q13424 82-180, limits assumed, looked up): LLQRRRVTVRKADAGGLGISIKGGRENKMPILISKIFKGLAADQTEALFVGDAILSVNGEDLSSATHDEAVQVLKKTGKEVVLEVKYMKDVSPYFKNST

[4] = target: GOPC, Q9HD26
[5] = target: LNX1_2, Q8TBB1
Chain of LNX1_2, Q8TBB1 (Q8TBB1 371-470): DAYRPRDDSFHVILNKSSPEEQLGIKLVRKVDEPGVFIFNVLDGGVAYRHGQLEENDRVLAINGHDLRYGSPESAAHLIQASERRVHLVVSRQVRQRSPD

[6] = target: T2, MPDZ_12, O75970
T2 sequence (O75970 1857-1958, limits assumed, looked up): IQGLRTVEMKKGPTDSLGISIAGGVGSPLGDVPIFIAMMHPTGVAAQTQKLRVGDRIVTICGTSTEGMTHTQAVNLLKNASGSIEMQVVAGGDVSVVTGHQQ

[7] = target: PICK1, Q9NRD5
Chain of PICK1, Q9NRD5 (Q9NRD5 17-115): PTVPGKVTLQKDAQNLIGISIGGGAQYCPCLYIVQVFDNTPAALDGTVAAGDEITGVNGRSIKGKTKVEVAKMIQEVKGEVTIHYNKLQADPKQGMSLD

[8] = target: T3, PTPN13_1, Q12923
T3 sequence (Q12923 1088-1188, limits assumed, looked up): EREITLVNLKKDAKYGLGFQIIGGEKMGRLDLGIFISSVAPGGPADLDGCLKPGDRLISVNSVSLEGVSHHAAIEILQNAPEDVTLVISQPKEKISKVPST

[9] = target: HTRA2, O43464
Chain of HTRA2, O43464 (O43464 355-458): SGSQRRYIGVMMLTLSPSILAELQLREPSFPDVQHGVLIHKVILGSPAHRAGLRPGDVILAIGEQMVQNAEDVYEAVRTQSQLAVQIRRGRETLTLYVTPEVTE

[10] = target: SCRIB_1, Q14160
Chain of SCRIB_1, Q14160 (Q14160 718-814): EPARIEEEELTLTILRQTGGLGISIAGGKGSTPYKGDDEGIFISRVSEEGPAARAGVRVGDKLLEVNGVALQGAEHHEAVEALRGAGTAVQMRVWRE

[11] = target: T4, LNX2_2, Q8N448
T4 sequence (Q8N448 334-432, limits assumed, looked up): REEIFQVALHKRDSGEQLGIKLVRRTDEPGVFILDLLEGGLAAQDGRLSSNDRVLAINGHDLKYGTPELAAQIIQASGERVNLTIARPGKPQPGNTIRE

[12] = target: T5, ARHGEF11, O15085
T5 sequence (O15085 42-136, limits assumed, looked up): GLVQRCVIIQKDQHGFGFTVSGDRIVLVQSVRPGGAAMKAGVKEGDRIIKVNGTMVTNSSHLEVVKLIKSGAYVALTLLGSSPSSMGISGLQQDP

[13] = target: Inadl_4, Q8NI35
Chain of Inadl_4, Q8NI35 (Q8NI35 547-651): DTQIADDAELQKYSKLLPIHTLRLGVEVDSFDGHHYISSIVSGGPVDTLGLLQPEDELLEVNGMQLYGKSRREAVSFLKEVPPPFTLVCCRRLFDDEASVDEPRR

[14] = target: GRIP2_7, Q9C0E4
Chain of GRIP2_7, Q9C0E4 (Q9C0E4 934-1023): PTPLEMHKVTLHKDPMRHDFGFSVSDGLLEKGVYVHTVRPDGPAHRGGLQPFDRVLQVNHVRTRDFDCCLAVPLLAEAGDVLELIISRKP

[15] = target: T6, PDZD7_3, Q9H5P4
T6 sequence (Q9H5P4 857-944, limits assumed, looked up): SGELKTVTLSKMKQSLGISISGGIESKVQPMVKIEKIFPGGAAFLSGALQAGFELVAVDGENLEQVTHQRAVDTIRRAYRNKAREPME

[16] = target: GIPC2, Q8TF65
Chain of GIPC2, Q8TF65 (Q8TF65 112-203): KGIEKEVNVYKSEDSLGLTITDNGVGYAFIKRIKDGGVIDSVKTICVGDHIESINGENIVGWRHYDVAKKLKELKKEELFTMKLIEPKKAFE

[17] = target: PDLIM1, O00151
Chain of PDLIM1, O00151 (O00151 1-87): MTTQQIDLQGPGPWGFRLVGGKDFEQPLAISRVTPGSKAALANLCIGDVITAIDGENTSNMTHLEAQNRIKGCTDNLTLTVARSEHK

[18] = target: T7, SIPA1L2, Q9P2F8
T7 sequence (Q9P2F8 945-1036, limits assumed, looked up): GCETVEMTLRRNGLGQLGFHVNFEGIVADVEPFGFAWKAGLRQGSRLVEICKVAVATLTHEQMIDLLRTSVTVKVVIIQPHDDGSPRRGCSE

[19] = target: T8, GRIP1_3, Q9Y3R0
T8 sequence (Q9Y3R0 247-346, limits assumed, looked up): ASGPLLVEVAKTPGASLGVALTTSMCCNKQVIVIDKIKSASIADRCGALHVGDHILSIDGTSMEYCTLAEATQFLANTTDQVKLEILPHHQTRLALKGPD

[20] = target: T9, GRIP1_2, Q9Y3R0
T9 sequence (Q9Y3R0 145-248, limits assumed, looked up): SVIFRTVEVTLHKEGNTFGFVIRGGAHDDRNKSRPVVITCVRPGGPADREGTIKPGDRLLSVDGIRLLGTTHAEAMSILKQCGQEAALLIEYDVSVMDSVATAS

[21] = target: T10, GRIP1_4, Q9Y3R0
T10 sequence (Q9Y3R0 467-571, limits assumed, looked up): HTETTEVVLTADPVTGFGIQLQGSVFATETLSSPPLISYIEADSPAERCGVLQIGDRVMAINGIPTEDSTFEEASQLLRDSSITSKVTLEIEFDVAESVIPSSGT

[22] = target: Inadl_3, Q8NI35
Chain of Inadl_3, Q8NI35 (Q8NI35 359-469): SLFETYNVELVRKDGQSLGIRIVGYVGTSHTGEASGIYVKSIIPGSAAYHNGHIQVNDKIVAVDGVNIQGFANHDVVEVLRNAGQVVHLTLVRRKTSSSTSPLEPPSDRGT

[23] = target: ARHGEF12, Q9NZN5-2
Chain of ARHGEF12, Q9NZN5-2 (Q9NZN5 other isoform, or with tags, fused parts or gaps): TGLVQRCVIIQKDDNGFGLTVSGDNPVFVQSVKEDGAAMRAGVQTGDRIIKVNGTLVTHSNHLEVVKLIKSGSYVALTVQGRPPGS

[24] = target: MAST2, Q6P0Q8
Chain of MAST2, Q6P0Q8 (Q6P0Q8 1099-1202): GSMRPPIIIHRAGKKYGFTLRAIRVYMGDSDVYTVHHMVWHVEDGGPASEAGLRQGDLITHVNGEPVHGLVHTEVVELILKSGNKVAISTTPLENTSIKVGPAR

[25] = target: LDB3, O75112
Chain of LDB3, O75112 (O75112 1-94): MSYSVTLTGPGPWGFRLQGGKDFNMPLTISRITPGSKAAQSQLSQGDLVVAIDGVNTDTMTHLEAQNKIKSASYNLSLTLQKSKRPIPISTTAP

[26] = target: DLG2_2, Q15700
[27] = target: T11, APBA2_1, Q99767
T11 sequence (Q99767 563-664, limits assumed, looked up): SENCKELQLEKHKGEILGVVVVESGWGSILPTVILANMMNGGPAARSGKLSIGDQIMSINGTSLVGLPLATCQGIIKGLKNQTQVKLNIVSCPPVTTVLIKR

[28] = plain residues with an end cap or a label only (N-terminal biotin on a linker: ado-ado)
[29] = plain residues with an end cap or a label only (N-terminal biotin on a linker: (peg)3)

Measured: pKd

Chain of Inadl_1, Q8NI35 (Q8NI35 113-229): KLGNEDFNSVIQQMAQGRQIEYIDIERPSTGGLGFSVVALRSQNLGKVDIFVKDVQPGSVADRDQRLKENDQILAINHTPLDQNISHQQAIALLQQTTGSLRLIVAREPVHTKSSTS

SFISKKEWYV [NECTIN1, Q15223]
3.63: [1]; [28]
3.91: [2]; [28]
5.05: [11]; [28]
5.62: [14]; [28]
4.83: [22]; [28]
4.41: [12]; [28]
below the threshold: [3]; [28] | [4]; [28] | [6]; [28] | [8]; [28] | [10]; [28] | [13]; [28] | [15]; [28] | [16]; [28] | [17]; [28] | [18]; [28] | [19]; [28] | [20]; [28] | [21]; [28] | [23]; [28] | [25]; [28] | [26]; [28] | [27]; [28]
4.2: [9]; [28]
4.46: [5]; [28]
4.24: [7]; [28]
4.44: [24]; [28]

LKDDELKTKL [SLCO1A2, P46721]
4.43: [15]; [28]
5.28: [24]; [28]
4.62: [23]; [28]
below the threshold: [1]; [28] | [2]; [28] | [3]; [28] | [5]; [28] | [6]; [28] | [7]; [28] | [8]; [28] | [9]; [28] | [10]; [28] | [11]; [28] | [13]; [28] | [14]; [28] | [16]; [28] | [17]; [28] | [18]; [28] | [19]; [28] | [20]; [28] | [21]; [28] | [22]; [28] | [25]; [28] | [26]; [28] | [27]; [28]
3.98: [12]; [28]
3.94: [4]; [28]

RRRRSQSRESQC [HBV-HBc, P03193]
4.05: [7]; [29]
4.48: [10]; [29]
below the threshold: [2]; [29] | [4]; [29] | [5]; [29] | [6]; [29] | [8]; [29] | [9]; [29] | [11]; [29] | [12]; [29] | [13]; [29] | [14]; [29] | [15]; [29] | [17]; [29] | [18]; [29] | [19]; [29] | [20]; [29] | [21]; [29] | [22]; [29] | [23]; [29] | [25]; [29] | [27]; [29]
4.18: [1]; [29]
4.39: [16]; [29]
4.26: [24]; [29]
4.44: [3]; [29]
4.22: [26]; [29]

AEASVACSLC [PTGIR, P43119]
3.48: [6]; [28]
4.47: [15]; [28]
3.75: [16]; [28]
3.49: [1]; [28]
3.78: [9]; [28] | [11]; [28]
3.68: [5]; [28]
3.53: [23]; [28]
4.32: [24]; [28]
below the threshold: [2]; [28] | [3]; [28] | [4]; [28] | [7]; [28] | [8]; [28] | [10]; [28] | [12]; [28] | [13]; [28] | [14]; [28] | [17]; [28] | [18]; [28] | [19]; [28] | [20]; [28] | [21]; [28] | [22]; [28] | [25]; [28] | [26]; [28] | [27]; [28]
